Positions count from the first letter of the chain named. Blank lines part the entries; values can stand above or below the binder they belong to.
Tests used:
cSNK:BSA conjugate [1] = biological target: T1, cSNK:BSA conjugate (bovine, head-to-tail cyclized; conjugated to BSA carrier); test: BLI 2:1 fit, site 1; 25 nM row
T1 construct: also called BSA-cSNK
Protocol: (§1) Biolayer interferometry (Octet […], ForteBio) was used to qualitatively/quantitatively assess the interactions between humanized versions of 5E3 and cSNK:BSA conjugate. […] MAbs were loaded onto sensors and then washed in PBST. Each sensor was associated with one of several cSNK:BSA standards (100 nM to 0 nM) and then washed in PBST. Data was processed statistically using ForteBio Data Analysis software to determine the strength of antigen-antibody binding (KD). For each mAb analyzed, a 2:1 model provided the “best fit”.

Aβ42 oligomers [2] = biological target: T2, Aβ42 oligomers (UniProt P05067 672-713); test: Biacore (SPR), Aβ oligomer preparation AβO1 (HQ AβO1); upper end of the range
T2 construct: domain: Aβ42; immobilized preparation containing monomers, low and high molecular weight oligomers; also called Amyloid beta oligomers; Aβ oligomers
Protocol: (§2) Using a Biacore™ 3000, Aβ42 oligomers were immobilized (containing monomers, low and high molecular weight oligomers) and BSA (reference surface) on 4 separate flow cells of a biosensorchip. Murine 5E3 or humanized 5E3 IgG1, IgG2, and IgG4 were then diluted, sequentially injected over the different immobilized peptides and antibody binding monitored in real time. Binding data was collected by sequentially injecting buffer blanks, 1/10 dilutions of m5E3 or 1 uM dilutions of hu5E3 control over separate flow cells immobilized with BSA or Aβ42 oligomer on another biosensor chip at a flow rate of 10 μl/minute. Association was allowed for 200 seconds, followed by dissociation for 500 seconds and binding responses collected 10 seconds before the end of the […]. All binding responses were double-referenced by subtracting buffer blanks and BSA reference surface binding.
(§3) Results: As shown in FIG. 9A and FIG. 9B, the humanized 5E3 isotypes bound to the Aβ42 oligomer preparation. Affinity constants were determined for hu5E3 IgG1 Aβ42 oligomer preparations.

Aβ42 oligomers [3] = biological target: T2, Aβ42 oligomers; test: Biacore (SPR), Aβ oligomer preparation AβO1' (HQ AβO1'); upper end of the range
Protocol: as §2, §3

cSNK:BSA conjugate [4] = biological target: T1, cSNK:BSA conjugate; test: BLI 2:1 fit, site 2 (kdis2); 3.13 nM row
Protocol: as §1

Aβ42 oligomers [5] = biological target: T2, Aβ42 oligomers; test: Biacore (SPR), Aβ oligomer preparation AβO1 (HQ AβO1); lower end of the range
Protocol: as §2, §3

cSNK:BSA conjugate [6] = biological target: T1, cSNK:BSA conjugate; test: BLI (Octet), KD2; unlabelled reference row, taken as hu5E3
cSNK:BSA conjugate [7] = biological target: T1, cSNK:BSA conjugate; test: BLI 2:1 fit, site 1; 12.5 nM row
Protocol: as §1

Ovalbumin [8] = biological target: T3, Ovalbumin (UniProt P01012 2-386); test: Western immunoblot, FIGS. 3A-D
T3 sequence (looked up): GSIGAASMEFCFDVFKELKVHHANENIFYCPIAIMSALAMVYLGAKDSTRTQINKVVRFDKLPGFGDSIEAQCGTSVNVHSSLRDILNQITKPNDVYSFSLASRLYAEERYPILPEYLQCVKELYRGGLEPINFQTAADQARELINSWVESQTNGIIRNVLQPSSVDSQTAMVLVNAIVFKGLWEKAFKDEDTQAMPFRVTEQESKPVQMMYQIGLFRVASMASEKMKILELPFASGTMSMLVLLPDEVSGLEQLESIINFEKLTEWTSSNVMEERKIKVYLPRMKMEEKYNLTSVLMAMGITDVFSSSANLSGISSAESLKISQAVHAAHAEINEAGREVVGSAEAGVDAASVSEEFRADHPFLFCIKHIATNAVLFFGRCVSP
Protocol: (§4) A 4-12% gradient SDS-PAGE gel was run with cSNK-BSA. The gel was then transferred to a nitrocellulose membrane. The next day the mAbs (1° Ab) were diluted to 2 μg/ml to 5 μg/ml depending on the antibody, and used to probe the membrane at room temperature (RT). The membranes were then probed with anti-mouse IgG-HRP (2° Ab).

cSNK:BSA conjugate [9] = biological target: T1, cSNK:BSA conjugate; test: BLI 2:1 fit, site 2 (kon2); 100 nM row
Protocol: as §1

cSNK:BSA conjugate [10] = biological target: T1, cSNK:BSA conjugate; test: BLI 2:1 fit, site 1; 100 nM row
Protocol: as §1

cSNK:BSA conjugate [11] = biological target: T1, cSNK:BSA conjugate; test: BLI 2:1 fit, site 2 (kdis2); 100 nM row
Protocol: as §1

cSNK:BSA conjugate [12] = biological target: T1, cSNK:BSA conjugate; test: BLI (Octet RED96), 2:1 kinetics, KD2, summary table; KD2, summary table
Protocol: as §1
Table 7 summarizes the affinity constants of humanized 5E3 IgG1, IgG2 and IgG4 constructs. The KD ranges were determined using 2:1 kinetics of binding of analyte (BSA-cSNK) in solution to two different binding sites on the surface (immobilized bivalent, monospecific 5E3) in comparison to murine 5E3 using biolayer interferometry (Octet RED96).

Ovalbumin [13] = biological target: T3, Ovalbumin; test: Western blot of BSA, BSA-cSNK and ovalbumin probed with m5E3
Protocol: as §4

cSNK:BSA conjugate [14] = biological target: T1, cSNK:BSA conjugate; test: BLI 2:1 fit, site 1 (KD1); 3.13 nM row
Protocol: as §1

cSNK:BSA conjugate [15] = biological target: T1, cSNK:BSA conjugate; test: BLI 2:1 fit, site 1 (KD1); 25 nM row
Protocol: as §1

cSNK:BSA conjugate [16] = biological target: T1, cSNK:BSA conjugate; test: BLI 2:1 fit, site 1 (KD1); 6.25 nM row
Protocol: as §1

cSNK:BSA conjugate [17] = biological target: T1, cSNK:BSA conjugate; test: BLI 2:1 fit, site 1 (KD1); 12.5 nM row
Protocol: as §1

T1 sequence (P02769 25-607 limits assumed): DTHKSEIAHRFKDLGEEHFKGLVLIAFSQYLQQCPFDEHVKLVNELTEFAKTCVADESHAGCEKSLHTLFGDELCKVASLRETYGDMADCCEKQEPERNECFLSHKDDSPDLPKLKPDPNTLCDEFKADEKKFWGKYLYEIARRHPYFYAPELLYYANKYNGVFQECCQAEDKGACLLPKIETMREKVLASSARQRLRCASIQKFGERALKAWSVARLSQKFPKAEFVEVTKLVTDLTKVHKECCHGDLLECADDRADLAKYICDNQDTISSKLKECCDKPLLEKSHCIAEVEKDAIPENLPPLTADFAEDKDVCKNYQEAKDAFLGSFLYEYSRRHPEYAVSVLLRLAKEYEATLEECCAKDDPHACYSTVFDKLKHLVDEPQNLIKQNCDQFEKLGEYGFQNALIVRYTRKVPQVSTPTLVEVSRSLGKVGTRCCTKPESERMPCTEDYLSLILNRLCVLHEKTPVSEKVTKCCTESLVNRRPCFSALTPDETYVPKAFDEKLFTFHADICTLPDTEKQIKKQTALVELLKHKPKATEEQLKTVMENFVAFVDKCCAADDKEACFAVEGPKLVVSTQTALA
T2 sequence (P05067 672-713 limits assumed): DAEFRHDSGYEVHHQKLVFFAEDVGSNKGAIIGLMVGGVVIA

- Kd (cSNK:BSA conjugate [1]): 0.00033 µM
- koff (cSNK:BSA conjugate [1]): 0.000428 s⁻¹
- kon (cSNK:BSA conjugate [1]): 1.29e+06 M⁻¹ s⁻¹
- koff (cSNK:BSA conjugate [4]): 0.0226 s⁻¹
- Kd (cSNK:BSA conjugate [12]): 0.00159 µM
- Kd (cSNK:BSA conjugate [7]): 0.00033 µM
- koff (cSNK:BSA conjugate [7]): 0.000428 s⁻¹
- kon (cSNK:BSA conjugate [7]): 1.29e+06 M⁻¹ s⁻¹
- binding result (Ovalbumin [13]): no binding
- kon (cSNK:BSA conjugate [9]): 1.42e+07 M⁻¹ s⁻¹
- Kd (cSNK:BSA conjugate [10]): 0.00033 µM
- koff (cSNK:BSA conjugate [10]): 0.000428 s⁻¹
- kon (cSNK:BSA conjugate [10]): 1.29e+06 M⁻¹ s⁻¹
- koff (cSNK:BSA conjugate [11]): 0.0226 s⁻¹
B4: murine monoclonal antibody 5E3 (antibody, V domains shown)
VH: QVQLQQSGPELVKPGASVRISCKASGYIFTSYYIQWVIHRPGQGLEWIGWIYPGNVNTKYNEKFKGKATLTADKSSSTAYMQLSRLTSEDSAVYFCARMDYEAHYWGQGTTLTVSS
VL: DIQMTQSPSSLSASLGERVSLTCRASQEISGYLTWLQQKPDGTIKRLIYAASTLDSGVPKRFSGSRSGSDYSLTISSLESEDFADYNCLQYANYPRTFGGGTKLEIK
notes: mouse antibody of the 5E3 hybridoma; also called murine 5E3; m5E3

- Kd (cSNK:BSA conjugate [14]): 0.000557 µM
- koff (cSNK:BSA conjugate [1]): 0.000386 s⁻¹
- kon (cSNK:BSA conjugate [1]): 692000 M⁻¹ s⁻¹
- Kd (cSNK:BSA conjugate [15]): 0.000557 µM
- koff (cSNK:BSA conjugate [4]): 0.0175 s⁻¹
- Kd (cSNK:BSA conjugate [16]): 0.000557 µM
- koff (cSNK:BSA conjugate [7]): 0.000386 s⁻¹
- kon (cSNK:BSA conjugate [7]): 692000 M⁻¹ s⁻¹
- Kd (cSNK:BSA conjugate [17]): 0.000557 µM
- kon (cSNK:BSA conjugate [9]): 4.44e+06 M⁻¹ s⁻¹
- koff (cSNK:BSA conjugate [10]): 0.000386 s⁻¹
- kon (cSNK:BSA conjugate [10]): 692000 M⁻¹ s⁻¹
- koff (cSNK:BSA conjugate [11]): 0.0175 s⁻¹
B5: rehu5E3-IgG4 (antibody, V domains shown)
VH: B4 VH with L11V, R19K, R40A, Q82E, R85S, T87R, T111L, L112V
VL: B4 VL with E17D, S20T, D41E, G42K, T43A, S72T, E79Q, S80P
notes: human IgG4/kappa; also called IgG4 rehu version

Further lines, the binder ahead of its results:

B1: hu5E3-IgG1 (antibody, V domains shown)
VH: B4 VH with L11V, V12K, R19K, R40A, Q82E, R85S, S91T, L112V
VL: B4 VL with L15V, E17D, S20T, L21I, D41E, T43A, E79Q, S80P, D85T
notes: human IgG1/kappa; also called humanized 5E3 IgG1; IHA variant
- Kd (cSNK:BSA conjugate [1]): 0.000463 µM
- koff (cSNK:BSA conjugate [1]): 0.000825 s⁻¹
- kon (cSNK:BSA conjugate [1]): 1.78e+06 M⁻¹ s⁻¹
- Kd (Aβ42 oligomers [2]): ≤ 3290 µM
- Kd (Aβ42 oligomers [3]): ≤ 51.7 µM
- koff (cSNK:BSA conjugate [4]): 0.012 s⁻¹
- Kd (Aβ42 oligomers [5]): ≥ 182 µM
- Kd (cSNK:BSA conjugate [6]): 0.0151 µM
- Kd (cSNK:BSA conjugate [7]): 0.000463 µM
- koff (cSNK:BSA conjugate [7]): 0.000825 s⁻¹
- kon (cSNK:BSA conjugate [7]): 1.78e+06 M⁻¹ s⁻¹

B2: hu5E3-IgG2 (antibody, V domains shown)
VH: B4 VH with L11V, V12K, R19K, R40A, Q82E, R85S, S91T, L112V
VL: B4 VL with L15V, E17D, S20T, L21I, D41E, T43A, E79Q, S80P, D85T
notes: human IgG2/kappa; also called humanized 5E3 IgG2
- Kd (cSNK:BSA conjugate [1]): 0.00118 µM
- koff (cSNK:BSA conjugate [1]): 0.000762 s⁻¹
- kon (cSNK:BSA conjugate [1]): 644000 M⁻¹ s⁻¹
- binding result (Ovalbumin [8]): no binding
- koff (cSNK:BSA conjugate [4]): 0.0338 s⁻¹
- Kd (cSNK:BSA conjugate [7]): 0.00118 µM
- koff (cSNK:BSA conjugate [7]): 0.000762 s⁻¹
- kon (cSNK:BSA conjugate [7]): 644000 M⁻¹ s⁻¹
- kon (cSNK:BSA conjugate [9]): 5.28e+06 M⁻¹ s⁻¹
- Kd (cSNK:BSA conjugate [10]): 0.00118 µM
- koff (cSNK:BSA conjugate [10]): 0.000762 s⁻¹
- kon (cSNK:BSA conjugate [10]): 644000 M⁻¹ s⁻¹
- koff (cSNK:BSA conjugate [11]): 0.0338 s⁻¹

B3: hu5E3-IgG4 (antibody, V domains shown)
VH: B4 VH with L11V, V12K, R19K, R40A, Q82E, R85S, S91T, L112V
VL: B4 VL with L15V, E17D, S20T, L21I, D41E, T43A, E79Q, S80P, D85T
notes: human IgG4/kappa; also called humanized 5E3 IgG4
- Kd (cSNK:BSA conjugate [1]): 0.000633 µM
- koff (cSNK:BSA conjugate [1]): 0.00055 s⁻¹
- kon (cSNK:BSA conjugate [1]): 868000 M⁻¹ s⁻¹
- binding result (Ovalbumin [8]): no binding
- koff (cSNK:BSA conjugate [4]): 0.0229 s⁻¹
- Kd (cSNK:BSA conjugate [7]): 0.000633 µM
- koff (cSNK:BSA conjugate [7]): 0.00055 s⁻¹
- kon (cSNK:BSA conjugate [7]): 868000 M⁻¹ s⁻¹
- kon (cSNK:BSA conjugate [9]): 7.52e+06 M⁻¹ s⁻¹
- Kd (cSNK:BSA conjugate [10]): 0.000633 µM
- koff (cSNK:BSA conjugate [10]): 0.00055 s⁻¹
- kon (cSNK:BSA conjugate [10]): 868000 M⁻¹ s⁻¹
- koff (cSNK:BSA conjugate [11]): 0.0229 s⁻¹

Source: patent US20170008955A1 (CNJ, published 2017)
